Results taken from patent US20240352070.

Target: T1, FRET substrate peptide KLRMKLPKP
T1 chain: KLRMKLPKP

B1: human cathepsin S wild-type, amino acids 17 to 331, C-terminal His-tag (CTSS-His) (protein)
chain: LPDSVDWREKGCVTEVKYQGSCGACWAFSAVGALEAQLKLKTGKLVSLSAQNLVDCSTEKYGNKGCNGGFMTTAFQYIIDNKGIDSDASYPYKAMDQKCQYDSKYRAATCSKYTELPYGREDVLKEAVANKGPVSVGVDARHPSFFLYRSGVYYEPSCTQNVNHGVLVVGYGDLNGKEYWLVKNSWGHNFGEEGYIRMARNKGNHCGIASFPSYPEI
  cleavage in FRET assay: validating the identified peptide by showing in a FRET assay that it is cleaved by cathepsin S
